# B1: anti-VEGFC antibody am63G12.1-5G8-18B9 (VHH)
# VHH: EVQLVESGGGLVQPGGSLRLSCAASGSSFSPYAMGWYRQAPGKQRELVSATSSGGFTLYADSVKGRFTISRDNSKNTVYLQMNSLRAEDTAVYYCYTYYREYDPEMYWGQGTQVTVSS
# notes: also called anti-VEGFC humanized VHH antibody
# How the values were obtained:
# human VEGFC [1] = target: T1, human VEGFC (human, UniProt P49767 103-227, limits assumed); experiment: biolayer interferometry (ForteBio), monovalent antigen-antibody binding, 30 C
# T1 construct: also called hVEGFC; VEGFC-biotin (biotin-labeled human VEGFC)
# T1 sequence (looked up): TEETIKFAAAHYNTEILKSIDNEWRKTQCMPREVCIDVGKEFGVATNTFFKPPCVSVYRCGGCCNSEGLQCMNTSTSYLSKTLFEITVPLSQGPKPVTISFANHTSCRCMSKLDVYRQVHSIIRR
# human VEGFC [2] = target: T1, human VEGFC; experiment: cell-based or functional assay
binder,measurement,setting,value
B1,Kd,human VEGFC [1],5.7 nM
same,koff,human VEGFC [1],0.00036 s⁻¹
same,kon,human VEGFC [1],63100 M⁻¹ s⁻¹
same,IC50 of inhibition of VEGFC-induced activation of the KDR signaling pathway (NFAT-RE-luc2P/KDR HEK293 reporter cells),human VEGFC [2],~4.46 nM
same,IC50 of inhibition of hVEGFC-induced BaF3-FLT4 survival and proliferation (CCK-8),human VEGFC [2],0.792 nM

# Reference: patent publication EP4663202A1 (Innovent Biologics (Suzhou) Co., Ltd., dated 2025)
